Here are results for three molecules from paper PMC3500696.

Experiment [1] addresses porcine CSF-1R expressed in Ba/F3 cells (pig).
For experiment [2] the target is unchanged. The source holds these as a separate data set.

Read-outs that look alike come from different tables or passages of the source.

As to “bacterially produced porcine CSF-1 (active fragment Ser36-Arg189) (ligand)”, in experiment [1], the EC50, MTT cell viability assay, Ba/F3 cells expressing porcine CSF-1R is 0.029 µg/mL.
In turn, “recombinant human CSF-1 (from UniProt P09603 33-554) (ligand)” displayed an EC50, MTT cell viability assay, Ba/F3 cells expressing porcine CSF-1R (compared with rhIL-34) in experiment [2] of 0.1 µg/mL. Also, the EC50, MTT cell viability assay, Ba/F3 cells expressing porcine CSF-1R (compared with bacterially produced porcine CSF-1) in experiment [1] turned out to be 0.034 µg/mL.

B1: recombinant human Interleukin 34 (ligand)
chain: NEPLEMWPLTQNEECTVTGFLRDKLQYRSRLQYMKHYFPINYKISVPYEGVFRIANVTRLQRAQVSERELRYLWVLVSLSATESVQDVLLEGHPSWKYLQEVETLLLNVQQGLTDVEVSPKVESVLSLLNAPGPNLKLVRPKALLDNCFRVMELLYCSCCKQSSVLNWQDCEVPSPQSCSPEPSLQYAATQLYPPPPWSPSSPPHSTGSVRPVRAQGEGLLP
Molecule B1 gave an EC50, MTT cell viability assay, Ba/F3 cells expressing porcine CSF-1R in experiment [2] of 0.137 µg/mL.
